Experiments:
[1] = biological target: Enterococcus faecalis FabO 3-ketoacyl-ACP synthase I, hexahistidine-tagged (Enterococcus faecalis (strain FA2-2)); assay: SEC
[2] = biological target: Enterococcus faecalis FabN dehydratase/isomerase, hexahistidine-tagged (Enterococcus faecalis (strain FA2-2)); assay: SEC

Q: With “Enterococcus faecalis FabO 3-ketoacyl-ACP synthase I, hexahistidine-tagged (enzyme)” as the substance, how does the stoichiometry N [1] read?
A: 2

Q: How did the stoichiometry N [2] turn out when “Enterococcus faecalis FabN dehydratase/isomerase, hexahistidine-tagged (enzyme)” was run?
A: 6
